Assay [1] deals with T1, human transglutaminase 2 (hTG2) (Homo sapiens, UniProt P21980).
T1 construct: purchased Covalab, France opr 0027
T1 sequence (P21980 1-687): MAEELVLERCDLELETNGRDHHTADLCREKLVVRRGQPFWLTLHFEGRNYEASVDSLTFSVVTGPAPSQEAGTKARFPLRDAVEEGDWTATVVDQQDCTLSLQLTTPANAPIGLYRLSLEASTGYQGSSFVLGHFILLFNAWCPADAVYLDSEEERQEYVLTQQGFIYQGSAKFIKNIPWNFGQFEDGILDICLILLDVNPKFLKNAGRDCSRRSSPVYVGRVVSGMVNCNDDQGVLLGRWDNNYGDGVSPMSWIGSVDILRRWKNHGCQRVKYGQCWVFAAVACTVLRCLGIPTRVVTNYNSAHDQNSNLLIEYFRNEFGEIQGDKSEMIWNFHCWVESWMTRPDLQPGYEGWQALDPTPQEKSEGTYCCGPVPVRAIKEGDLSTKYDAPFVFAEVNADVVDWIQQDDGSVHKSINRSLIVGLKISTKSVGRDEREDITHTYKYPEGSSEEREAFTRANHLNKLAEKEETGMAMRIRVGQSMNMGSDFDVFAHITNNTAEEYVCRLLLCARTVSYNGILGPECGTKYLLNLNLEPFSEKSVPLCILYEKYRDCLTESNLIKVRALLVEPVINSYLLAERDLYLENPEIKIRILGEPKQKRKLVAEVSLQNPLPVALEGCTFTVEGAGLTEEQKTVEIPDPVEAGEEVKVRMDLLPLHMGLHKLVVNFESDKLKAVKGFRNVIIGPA
The assay is described as follows: TG2-mediated incorporation of biotin-cadaverine into peptides coupled on Covabtest plate. The note with it: same conditions as for mTG. It counts as biochemical. On the procedure: The coupling method was previously described by the Applicant (V. Thomas et al, 2004) and also in the corresponding data sheet of CovAbtest-Plate™ which is commercially available from Covalab (Ref #opr0004). Briefly, in separate tubes a solution mixture containing 150 μM of each peptide dissolved in 10 mM phosphate buffer pH5, 5 mM EDAC and 5 mM NHS was incubated for 30 min under gentle shaking. The resulting activated NHS-carboxyl C-terminal moiety of each peptide (15 nmoles) was used to be conjugated in each well of CovAbtest-Plate™ previously deprotonated during 15 min with 150 μl 0.6% sodium bicarbonate per well. The microtiter plate was then incubated during 2 hrs at room temperature and washed extensively with Tris Buffer Saline.
For this experiment we used the same procedures described by V Thomas et all (2004) and also in the Covalab's commercialized kit (opr0033). Briefly the Lyophilized transglutaminase was reconstituted in 40 mM tris buffer pH 8 and 50 μl of each mTG at 200 ng/ml and at 40 ng/ml were added in the wells containing 50 μl of biotin-X-cadaverine. The enzymatic mixture was incubated for 15 min at room temperature under gentle shaking. […] Absorbances at 450 nm were measured using a microplate reader (Multiskan, Labsystems, Helsinki, Finland). […]

For assay [2], the target named is T2, microbial transglutaminase (mTG) (Streptomyces mobaraensis, UniProt P81453).
T2 construct: purchased Covalab, France opr 0054
T2 sequence (P81453 77-407): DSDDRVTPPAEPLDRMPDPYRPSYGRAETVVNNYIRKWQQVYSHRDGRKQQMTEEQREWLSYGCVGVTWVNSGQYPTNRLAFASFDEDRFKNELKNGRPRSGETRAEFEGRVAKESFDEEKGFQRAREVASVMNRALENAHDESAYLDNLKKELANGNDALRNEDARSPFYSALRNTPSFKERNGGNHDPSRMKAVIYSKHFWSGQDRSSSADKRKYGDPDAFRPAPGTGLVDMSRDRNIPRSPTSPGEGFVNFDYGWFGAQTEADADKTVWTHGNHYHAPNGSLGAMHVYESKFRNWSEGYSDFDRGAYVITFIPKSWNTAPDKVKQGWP
In words: Colorimetric assay: mTG incorporation of biotinylated peptides into immobilized spermine, apparent Km. The note with it: biotinylated peptides, spermine plate. The format is biochemical. The source says:
To produce the Covabtest-spm plate, the procedure previously described in Mily et al (2009) was used.
For the screening of the peptide listed in table 2 (Biotinylated peptides) the inventors used our colorimetric assay to measure transglutaminase 2 (TG2) cross linking activity (Mily et al, 2009) and commercialized under ref opr0033 in which mTG was used instead of TG2 and described in this experience. The principle of the method is based on the transamidation activity of mTG, using covalently coupled spermine to carboxy-substituted polystyrene plates and biotinylated peptides. The assay consists of the incorporation of the glutamine gamma-carboxamide group into the immobilized spermine. The amount of biotinylated peptide bound to the plate, as measured by the activity of streptavidin-peroxidase, is directly proportional to the TG activity. Absorbance was measured at 450 nm using the microplate reader.
In order to compare the affinity of mTG to the preferred substrate, the peptides were used at different concentrations ranging from 160, 80, 40, 20, 10, 5, 2.5 and 0 μM. Then the apparent Km were determined for each peptide and were calculated by Lineweaver-Burk method (1/Absorbance=f(1/[mTG (μM)]).
In this experiment, spermine was conjugated into the plate as described in B-II-4. Biotinylated peptides described in table 3 were incubated with mTG at different concentration (160, 80, 40, 20, 10, 5, 2.5 and 0 μM). […] Even if E seems to abolish the reactivity of the peptides this cannot be due to the negative charge only but also to the nature of the amino acides at the position X+1, X+2 and X+3. […] This is confirmed with LN-11Q8Q10 peptide.

As for HDLMWPDVYSQH (Peptide HH12Q11), the “reactivity as substrate for TG2 incorporation of biot-cad” value in assay [1] was “less reactivity with TG2 than mTG”. Moreover, the “reactivity of peptide with mTG (text on Table 3)” value in assay [2] is reported as “highly reactive with mTG”.

Source of the values: patent publication US11376333B2, “mTG substrates for covalent conjugation of compounds” (COVALAB, priority 2013, dated 2022).
